{"source": "paper doi:10.1101/2020.04.07.028951", "about": "(bioRxiv, 2020)", "molecules": {"B1": {"name": "Clostridium perfringens CBS-PPase (cpPPase) (enzyme)", "chain": "MKDVIYITGHKNPDSDSICAALAYAEFKNKTQDTPAIPVRLGNVSQETQYILDYFGVEAPQFLETVKLKVEDLEMDKIAPLAPEVSLKMAWNIMRDKNLKSIPVADGNNHLLGMLSTSNITATYMDIWDSNILAKSATSLDNILDTLSAEAQNINEERKVFPGKVVVAAMQAESLKEFISEGDIAIAGDRAEIQAELIELKVSLLIVTGGHTPSKEIIELAKKNNITVITTPHDSFTASRLIVQSLPVDYVMTKDNLVAVSTDDLVEDVKVTMSETRYSNYPVIDENNKVVGSIARFHLISTHKKKVIQVDHNERGQSVHGLEDAEVLEIIDHHRVADIQTGNPIYFRNEPLGSTSTIVAKRFFENGIRPSREAAGLLCGAIISDTLLFKSPTCTPQDVKMCRKLAEIAGIVPETFAKEMFKAGTSLKGKSIEEIFNADFKPFTIEGVKVGVAQVNTMDIEGFMPLKGEMLDYMNQKAESMGLEMIMLLLTDIINEGSQILVAGRSPEIAEEAFKVKLEDSTTFLPGVLSRKKQVVPPLTQIITTRVSK"}}, "key": {"[1]": {"molecular_target": "Clostridium novyi CBS-PPase (cnPPase) (Clostridium novyi)", "test": "AUC"}, "[2]": {"molecular_target": "Clostridium novyi CBS-PPase (cnPPase) (Clostridium novyi)", "test": "cross-linking"}, "[3]": {"molecular_target": "Desulfitobacterium hafniense CBS-PPase (dhPPase), full-size (Desulfitobacterium hafniense)", "test": "AUC"}, "[4]": {"molecular_target": "Desulfitobacterium hafniense CBS-PPase (dhPPase), full-size (Desulfitobacterium hafniense)", "test": "cross-linking"}, "[5]": {"molecular_target": "Desulfitobacterium hafniense CBS-PPase (dhPPase), full-size (Desulfitobacterium hafniense)", "test": "enzyme activity after dilution"}, "[6]": {"molecular_target": "Eggerthella lenta CBS-PPase (elPPase) (Eggerthella lenta)", "test": "AUC"}, "[7]": {"molecular_target": "Ethanoligenens harbinense CBS-PPase (ehPPase) (Ethanoligenens harbinense)", "test": "AUC"}, "[8]": {"molecular_target": "Ethanoligenens harbinense CBS-PPase (ehPPase) (Ethanoligenens harbinense)", "test": "cross-linking"}, "[9]": {"molecular_target": "dhCDC, separate regulatory part of dhPPase (residues 63-306) (Desulfitobacterium hafniense)", "test": "AUC"}, "[10]": {"molecular_target": "dhCDC, separate regulatory part of dhPPase (residues 63-306) (Desulfitobacterium hafniense)", "test": "AUC", "remark": "listed apart in the source"}, "[11]": {"molecular_target": "dhCDC, separate regulatory part of dhPPase (residues 63-306) (Desulfitobacterium hafniense)", "test": "cross-linking"}, "[12]": {"molecular_target": "dhPPaseΔCDC, separate catalytic part of D. hafniense CBS-PPase (Desulfitobacterium hafniense)", "test": "AUC"}, "[13]": {"molecular_target": "dhPPaseΔCDC, separate catalytic part of D. hafniense CBS-PPase (Desulfitobacterium hafniense)", "test": "cross-linking"}, "[14]": {"molecular_target": "dhPPaseΔCDC, separate catalytic part of D. hafniense CBS-PPase (Desulfitobacterium hafniense)", "test": "enzyme activity after dilution"}, "[15]": {"molecular_target": "the molecule itself", "test": "cross-linking"}}}
{"molecule": "Clostridium novyi CBS-PPase (cnPPase) (enzyme)", "values": [{"measurement": "stoichiometry N", "setting": "[1]", "value": 4}, {"measurement": "stoichiometry N", "setting": "[2]", "value": 4}]}
{"molecule": "Desulfitobacterium hafniense CBS-PPase (dhPPase), full-size (enzyme)", "values": [{"measurement": "stoichiometry N", "setting": "[3]", "value": 4}, {"measurement": "stoichiometry N", "setting": "[4]", "value": 4}, {"measurement": "percent dissociated at 3 µM", "setting": "[5]", "value": 10, "unit": "%"}, {"measurement": "percent tetrameric at 1 µM", "setting": "[5]", "value": 79, "unit": "%"}]}
{"molecule": "Eggerthella lenta CBS-PPase (elPPase) (enzyme)", "values": [{"measurement": "stoichiometry N", "setting": "[6]", "value": 4}]}
{"molecule": "Ethanoligenens harbinense CBS-PPase (ehPPase) (enzyme)", "values": [{"measurement": "stoichiometry N", "setting": "[7]", "value": 4}, {"measurement": "stoichiometry N", "setting": "[8]", "value": 2}]}
{"molecule": "dhCDC, separate regulatory part of dhPPase (residues 63-306) (domain or fragment)", "values": [{"measurement": "stoichiometry N", "setting": "[9]", "value": 2}, {"measurement": "stoichiometry N", "setting": "[10]", "value": 2}, {"measurement": "stoichiometry N", "setting": "[11]", "value": 2}]}
{"molecule": "dhPPaseΔCDC, separate catalytic part of D. hafniense CBS-PPase (enzyme)", "values": [{"measurement": "stoichiometry N", "setting": "[12]", "value": 2}, {"measurement": "stoichiometry N", "setting": "[13]", "value": 2}, {"measurement": "koff", "setting": "[14]", "value": 0.04, "unit": "s⁻¹"}, {"measurement": "percent dimeric at 5.8 µM", "setting": "[14]", "value": 37, "unit": "%"}]}
{"molecule": "B1", "values": [{"measurement": "stoichiometry N", "setting": "[15]", "value": 4}]}
